From patent US20220315554A1, “COMPOUNDS COMPRISING A […] LIGAND AND USE THEREOF” (priority 2019, published 2022)
Bridge positions count the residues as written; N and C are the ends. * marks the point of attachment. tMeBn(DOTA-AET) = Cys-Cys bridge (thioethers) carrying DOTA-AET; tMeBn(DOTA-PP) = Cys-Cys bridge (thioethers) carrying DOTA-PP; Hexanoyl = CCCCCC(=O)*

T1: 5-HT3 (h) (human (printed (h))), P46098
T1 chain: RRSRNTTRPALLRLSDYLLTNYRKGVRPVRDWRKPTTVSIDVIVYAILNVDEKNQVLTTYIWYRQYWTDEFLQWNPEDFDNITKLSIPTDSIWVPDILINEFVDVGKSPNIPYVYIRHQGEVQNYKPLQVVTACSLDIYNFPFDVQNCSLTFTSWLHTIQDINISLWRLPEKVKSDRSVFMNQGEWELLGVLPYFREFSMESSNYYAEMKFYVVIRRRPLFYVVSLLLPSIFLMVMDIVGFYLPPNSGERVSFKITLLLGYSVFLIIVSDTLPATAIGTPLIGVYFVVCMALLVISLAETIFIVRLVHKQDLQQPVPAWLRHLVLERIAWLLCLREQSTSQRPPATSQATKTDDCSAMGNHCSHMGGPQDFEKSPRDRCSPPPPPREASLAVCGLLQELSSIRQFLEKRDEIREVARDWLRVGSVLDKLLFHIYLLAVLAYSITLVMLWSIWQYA

T2: CB1 (h) (human (printed (h))), P21554
T2 chain: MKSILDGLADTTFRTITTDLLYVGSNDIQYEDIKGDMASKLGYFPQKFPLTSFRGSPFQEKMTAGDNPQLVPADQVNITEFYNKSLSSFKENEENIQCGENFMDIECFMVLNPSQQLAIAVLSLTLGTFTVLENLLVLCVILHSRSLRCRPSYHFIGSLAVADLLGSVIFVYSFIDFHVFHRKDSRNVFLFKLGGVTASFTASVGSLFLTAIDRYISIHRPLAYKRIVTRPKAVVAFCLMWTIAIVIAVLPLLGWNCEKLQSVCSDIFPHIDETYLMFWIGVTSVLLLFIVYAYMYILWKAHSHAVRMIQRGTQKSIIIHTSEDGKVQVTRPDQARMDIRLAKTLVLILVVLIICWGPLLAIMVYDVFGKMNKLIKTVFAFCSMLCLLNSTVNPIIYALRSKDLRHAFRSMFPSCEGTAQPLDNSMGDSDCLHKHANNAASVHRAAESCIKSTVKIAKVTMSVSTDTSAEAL

T3: alpha 2A (h) (human (printed (h))), P08913
T3 chain: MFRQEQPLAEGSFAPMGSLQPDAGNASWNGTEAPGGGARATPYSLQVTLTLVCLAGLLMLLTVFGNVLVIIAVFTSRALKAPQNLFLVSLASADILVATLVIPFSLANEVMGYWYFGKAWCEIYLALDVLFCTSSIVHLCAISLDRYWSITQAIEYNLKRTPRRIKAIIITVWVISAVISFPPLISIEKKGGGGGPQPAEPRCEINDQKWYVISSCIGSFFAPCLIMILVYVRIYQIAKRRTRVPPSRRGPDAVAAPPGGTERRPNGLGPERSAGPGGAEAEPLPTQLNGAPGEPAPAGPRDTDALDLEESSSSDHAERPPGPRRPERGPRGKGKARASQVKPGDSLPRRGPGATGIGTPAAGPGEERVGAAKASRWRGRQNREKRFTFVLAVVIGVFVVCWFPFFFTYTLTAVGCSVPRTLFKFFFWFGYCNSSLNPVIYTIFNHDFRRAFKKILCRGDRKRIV

T4: Potassium Channel hERG (human) (human), Q12809
T4 chain: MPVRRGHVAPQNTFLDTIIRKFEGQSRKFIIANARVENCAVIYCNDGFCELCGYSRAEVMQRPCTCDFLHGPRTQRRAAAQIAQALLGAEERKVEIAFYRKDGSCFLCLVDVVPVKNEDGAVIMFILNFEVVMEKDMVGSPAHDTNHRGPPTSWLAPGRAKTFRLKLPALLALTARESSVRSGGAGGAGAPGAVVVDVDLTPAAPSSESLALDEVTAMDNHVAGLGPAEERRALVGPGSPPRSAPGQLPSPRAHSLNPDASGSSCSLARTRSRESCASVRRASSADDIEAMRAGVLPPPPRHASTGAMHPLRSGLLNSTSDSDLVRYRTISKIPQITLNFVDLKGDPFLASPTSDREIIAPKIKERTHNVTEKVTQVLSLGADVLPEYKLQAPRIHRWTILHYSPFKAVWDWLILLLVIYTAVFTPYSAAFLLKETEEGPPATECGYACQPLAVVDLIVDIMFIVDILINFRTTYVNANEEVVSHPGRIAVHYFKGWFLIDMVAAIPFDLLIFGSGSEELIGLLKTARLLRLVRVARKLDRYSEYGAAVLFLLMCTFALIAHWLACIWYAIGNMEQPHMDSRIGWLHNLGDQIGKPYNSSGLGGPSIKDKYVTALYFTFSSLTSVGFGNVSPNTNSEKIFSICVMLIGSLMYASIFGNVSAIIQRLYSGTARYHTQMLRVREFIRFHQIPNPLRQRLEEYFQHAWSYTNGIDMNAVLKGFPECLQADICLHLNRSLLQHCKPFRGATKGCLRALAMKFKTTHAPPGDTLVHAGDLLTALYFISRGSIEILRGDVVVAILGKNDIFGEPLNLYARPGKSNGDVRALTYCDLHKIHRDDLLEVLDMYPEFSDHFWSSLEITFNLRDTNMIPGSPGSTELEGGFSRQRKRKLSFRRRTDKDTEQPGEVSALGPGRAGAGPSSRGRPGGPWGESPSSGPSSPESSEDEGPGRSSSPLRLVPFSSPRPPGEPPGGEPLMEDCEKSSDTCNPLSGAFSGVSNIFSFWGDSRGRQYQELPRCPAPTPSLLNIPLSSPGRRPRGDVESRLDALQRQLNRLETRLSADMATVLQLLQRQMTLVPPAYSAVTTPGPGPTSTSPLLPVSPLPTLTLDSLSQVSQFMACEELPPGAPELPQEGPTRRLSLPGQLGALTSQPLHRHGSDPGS


Assays:
Settings in all cases: remark: other sources report otherwise
[1] = target: T1, 5-HT3 (h) (human (printed (h))), P46098; assay: radioligand displacement, 10 uM compound
[2] = target: T2, CB1 (h) (human (printed (h))), P21554; assay: radioligand displacement, 10 uM compound
[3] = target: H2 (h) (human (printed (h))), P25021; assay: radioligand displacement, 10 uM compound
H2 (h) (human (printed (h))), P25021, sequence (P25021 whole entry): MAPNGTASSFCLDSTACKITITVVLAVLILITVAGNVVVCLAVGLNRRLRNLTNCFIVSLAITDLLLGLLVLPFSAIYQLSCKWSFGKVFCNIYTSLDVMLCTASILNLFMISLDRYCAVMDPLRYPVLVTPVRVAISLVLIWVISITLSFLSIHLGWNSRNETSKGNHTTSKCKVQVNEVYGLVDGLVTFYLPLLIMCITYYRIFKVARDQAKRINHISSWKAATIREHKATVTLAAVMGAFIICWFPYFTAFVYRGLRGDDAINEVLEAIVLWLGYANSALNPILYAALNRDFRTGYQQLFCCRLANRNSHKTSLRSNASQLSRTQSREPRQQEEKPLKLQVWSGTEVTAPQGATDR

[4] = target: T3, alpha 2A (h) (human (printed (h))), …; assay: radioligand displacement, 10 uM compound
[5] = target: beta 2 (h) (human (printed (h))), P07550; assay: radioligand displacement, 10 uM compound
[6] = target: T4, Potassium Channel hERG (human) (human), …; assay: [3H] Dofetilide displacement, 10 uM compound

Row | % Inhibition of Specific Binding [1] [%] | % Inhibition of Specific Binding [2] [%] | % Inhibition of Specific Binding [3] [%] | % Inhibition of Specific Binding [4] [%] | % Inhibition of Specific Binding [5] [%] | Binder | % Inhibition of Specific Binding [6] [%]
1 | 4 | -7 | -16 | 2 | 8 | Hexanoyl-CPPTQFC-OH (linker 1-7 via tMeBn(DOTA-AET)) [Hex-[Cys(tMeBn(DOTA-AET))-Pro-Pro-Thr-Gln-Phe-Cys]-OH (3BP-3554)] | 6
2 | 2 | 5 | -5 | -9 | 4 | Hexanoyl-CPPTQFCD-NH2 (linker 1-7 via tMeBn(DOTA-PP)) [Hex-[Cys(tMeBn(DOTA-PP))-Pro-Pro-Thr-Gln-Phe-Cys]-Asp-NH2 (3BP-3407)] | 2
